Experimental data published in publication PMC2196875.

Biological target: titin fragment Z9-Z10 as used in isothermal titration calorimetry (human)
Experiment: ITC

Kd: 100 to 200 nM
Substance: untagged obscurin fragment Ob48-Ob49 (domain or fragment)
